# Source: publication PMC3548793, “CK2 Phosphorylates Sec31 and Regulates ER-To-Golgi Trafficking” (PLoS ONE, 2013)
# Biological target: T1, GFP-tagged Sec23 (UniProt Q15436 1-765)
# T1 construct: Sec23a; plasmid YFP-Sec23a was a gift; The results and legends call it GFP-tagged Sec23; the only Sec23 plasmid named in the methods is YFP-Sec23a; also called GFP-Sec23; YFP-Sec23a; source: HEK293, transfected, in lysate
# Experiment: co-IP; HEK293 cells co-transfected with FLAG-tagged Sec31 (WT or mutants) and GFP-tagged Sec23 or GFP-Sec13; GFP-tagged protein immunoprecipitated with anti-GFP beads, blot with anti-FLAG; 10 mM HEPES-KOH pH 7.4, 100 mM KCl, 0.1 mM DTT, 2.5 mM MgCl2, 1% Triton X-100, 30 min at 4°C; in Figure 6 cells transfected two days before with or without siRNA1 to CK2 alpha1
# Settings: partners not purified
# T1 sequence (Q15436 whole entry): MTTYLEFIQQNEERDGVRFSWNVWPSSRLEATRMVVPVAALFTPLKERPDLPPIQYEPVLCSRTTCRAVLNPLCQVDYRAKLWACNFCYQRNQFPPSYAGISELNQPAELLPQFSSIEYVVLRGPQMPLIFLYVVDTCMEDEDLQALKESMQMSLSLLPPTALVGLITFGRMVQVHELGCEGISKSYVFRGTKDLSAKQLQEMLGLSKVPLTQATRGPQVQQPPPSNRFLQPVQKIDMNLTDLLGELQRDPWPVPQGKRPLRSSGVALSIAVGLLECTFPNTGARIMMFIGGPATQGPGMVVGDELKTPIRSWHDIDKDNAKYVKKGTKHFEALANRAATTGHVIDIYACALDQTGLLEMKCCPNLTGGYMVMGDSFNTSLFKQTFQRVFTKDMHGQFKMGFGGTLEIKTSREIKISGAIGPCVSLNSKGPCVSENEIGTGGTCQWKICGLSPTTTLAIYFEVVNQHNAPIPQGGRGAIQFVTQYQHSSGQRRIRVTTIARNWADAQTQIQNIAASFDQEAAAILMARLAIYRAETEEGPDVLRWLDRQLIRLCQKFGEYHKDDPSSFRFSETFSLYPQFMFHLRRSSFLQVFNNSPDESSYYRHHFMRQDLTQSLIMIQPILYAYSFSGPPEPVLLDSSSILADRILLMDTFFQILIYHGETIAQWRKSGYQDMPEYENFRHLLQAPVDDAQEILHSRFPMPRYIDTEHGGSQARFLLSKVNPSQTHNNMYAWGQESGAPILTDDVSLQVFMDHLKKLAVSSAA
binder,measurement,value
"FLAG-tagged wild type (WT) Sec31 (natural protein, human, UniProt O94979 1-1220, looked up, Sec31a, human, cDNA clone KIAA 0905 from Kazusa DNA Research Institute, subcloned into p3×FLAG-CMV; In the cells partly phosphorylated (S527, S799, S1163, T1165 found by mass spectrometry on endogenous Sec31); also called FLAG-Sec31; human Sec31a; source: HEK293, transfected, in lysate) MKLKEVDRTAMQAWSPAQNHPIYLATGTSAQQLDATFSTNASLEIFELDLSDPSLDMKSCATFSSSHRYHKLIWGPYKMDSKGDVSGVLIAGGENGNIILYDPSKIIAGDKEVVIAQNDKHTGPVRALDVNIFQTNLVASGANESEIYIWDLNNFATPMTPGAKTQPPEDISCIAWNRQVQHILASASPSGRATVWDLRKNEPIIKVSDHSNRMHCSGLAWHPDVATQMVLASEDDRLPVIQMWDLRFASSPLRVLENHARGILAIAWSMADPELLLSCGKDAKILCSNPNTGEVLYELPTNTQWCFDIQWCPRNPAVLSAASFDGRISVYSIMGGSTDGLRQKQVDKLSSSFGNLDPFGTGQPLPPLQIPQQTAQHSIVLPLKKPPKWIRRPVGASFSFGGKLVTFENVRMPSHQGAEQQQQQHHVFISQVVTEKEFLSRSDQLQQAVQSQGFINYCQKKIDASQTEFEKNVWSFLKVNFEDDSRGKYLELLGYRKEDLGKKIALALNKVDGANVALKDSDQVAQSDGEESPAAEEQLLGEHIKEEKEESEFLPSSGGTFNISVSGDIDGLITQALLTGNFESAVDLCLHDNRMADAIILAIAGGQELLARTQKKYFAKSQSKITRLITAVVMKNWKEIVESCDLKNWREALAAVLTYAKPDEFSALCDLLGTRLENEGDSLLQTQACLCYICAGNVEKLVACWTKAQDGSHPLSLQDLIEKVVILRKAVQLTQAMDTSTVGVLLAAKMSQYANLLAAQGSIAAALAFLPDNTNQPNIMQLRDRLCRAQGEPVAGHESPKIPYEKQQLPKGRPGPVAGHHQMPRVQTQQYYPHGENPPPPGFIMHGNVNPNAAGQLPTSPGHMHTQVPPYPQPQPYQPAQPYPFGTGGSAMYRPQQPVAPPTSNAYPNTPYISSASSYTGQSQLYAAQHQASSPTSSPATSFPPPPSSGASFQHGGPGAPPSSSAYALPPGTTGTLPAASELPASQRTGPQNGWNDPPALNRVPKKKKMPENFMPPVPITSPIMNPLGDPQSQMLQQQPSAPVPLSSQSSFPQPHLPGGQPFHGVQQPLGQTGMPPSFSKPNIEGAPGAPIGNTFQHVQSLPTKKITKKPIPDEHLILKTTFEDLIQRCLSSATDPQTKRKLDDASKRLEFLYDKLREQTLSPTITSGLHNIARSIETRNYSEGLTMHTHIVSTSNFSETSAFMPVLKVVLTQANKLGV","fold change of Sec31 co-precipitated with Sec23, CK2 depleted by siRNA1 against not depleted",~3 fold
"FLAG-tagged Sec31 S527A/S799A (natural protein, human, UniProt O94979 1-1220, looked up, Sec31a, human, cDNA clone KIAA 0905, point mutations by QuikChange; also called S527/S799; source: HEK293, transfected, in lysate) MKLKEVDRTAMQAWSPAQNHPIYLATGTSAQQLDATFSTNASLEIFELDLSDPSLDMKSCATFSSSHRYHKLIWGPYKMDSKGDVSGVLIAGGENGNIILYDPSKIIAGDKEVVIAQNDKHTGPVRALDVNIFQTNLVASGANESEIYIWDLNNFATPMTPGAKTQPPEDISCIAWNRQVQHILASASPSGRATVWDLRKNEPIIKVSDHSNRMHCSGLAWHPDVATQMVLASEDDRLPVIQMWDLRFASSPLRVLENHARGILAIAWSMADPELLLSCGKDAKILCSNPNTGEVLYELPTNTQWCFDIQWCPRNPAVLSAASFDGRISVYSIMGGSTDGLRQKQVDKLSSSFGNLDPFGTGQPLPPLQIPQQTAQHSIVLPLKKPPKWIRRPVGASFSFGGKLVTFENVRMPSHQGAEQQQQQHHVFISQVVTEKEFLSRSDQLQQAVQSQGFINYCQKKIDASQTEFEKNVWSFLKVNFEDDSRGKYLELLGYRKEDLGKKIALALNKVDGANVALKDSDQVAQADGEESPAAEEQLLGEHIKEEKEESEFLPSSGGTFNISVSGDIDGLITQALLTGNFESAVDLCLHDNRMADAIILAIAGGQELLARTQKKYFAKSQSKITRLITAVVMKNWKEIVESCDLKNWREALAAVLTYAKPDEFSALCDLLGTRLENEGDSLLQTQACLCYICAGNVEKLVACWTKAQDGSHPLSLQDLIEKVVILRKAVQLTQAMDTSTVGVLLAAKMSQYANLLAAQGSIAAALAFLPDNTNQPNIMQLRDRLCRAQGEPVAGHEAPKIPYEKQQLPKGRPGPVAGHHQMPRVQTQQYYPHGENPPPPGFIMHGNVNPNAAGQLPTSPGHMHTQVPPYPQPQPYQPAQPYPFGTGGSAMYRPQQPVAPPTSNAYPNTPYISSASSYTGQSQLYAAQHQASSPTSSPATSFPPPPSSGASFQHGGPGAPPSSSAYALPPGTTGTLPAASELPASQRTGPQNGWNDPPALNRVPKKKKMPENFMPPVPITSPIMNPLGDPQSQMLQQQPSAPVPLSSQSSFPQPHLPGGQPFHGVQQPLGQTGMPPSFSKPNIEGAPGAPIGNTFQHVQSLPTKKITKKPIPDEHLILKTTFEDLIQRCLSSATDPQTKRKLDDASKRLEFLYDKLREQTLSPTITSGLHNIARSIETRNYSEGLTMHTHIVSTSNFSETSAFMPVLKVVLTQANKLGV",fold change of Sec31 co-precipitated with Sec23 against wild type,3 fold
